Consider two substances from PMC6969021.

Assay [1] has as its target firefly luciferase (FLuc), wild type (Photinus pyralis) [luciferase: P08659].
For assay [2], the target named is FLucNC-Atto532 (Photinus pyralis). The assay can be described thus: AUC; sedimentation velocity, detection at 532 nm; GuHCl-denatured FLuc-Atto532 diluted to 200 nM in folding buffer with 3 µM DnaK, 1 µM DnaJ, 5 mM ATP.

Chain of DnaJ (P08622 whole entry): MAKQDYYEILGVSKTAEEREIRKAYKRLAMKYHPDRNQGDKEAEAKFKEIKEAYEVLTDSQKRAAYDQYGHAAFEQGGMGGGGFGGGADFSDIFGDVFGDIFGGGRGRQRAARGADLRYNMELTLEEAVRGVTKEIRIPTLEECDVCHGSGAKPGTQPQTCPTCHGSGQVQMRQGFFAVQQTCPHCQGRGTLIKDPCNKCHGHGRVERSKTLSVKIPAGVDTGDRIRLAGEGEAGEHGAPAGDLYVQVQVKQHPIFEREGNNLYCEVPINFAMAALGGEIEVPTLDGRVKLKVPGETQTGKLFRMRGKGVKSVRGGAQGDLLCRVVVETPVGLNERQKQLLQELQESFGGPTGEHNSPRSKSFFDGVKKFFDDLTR
Chain of DnaK (P0A6Y8 whole entry): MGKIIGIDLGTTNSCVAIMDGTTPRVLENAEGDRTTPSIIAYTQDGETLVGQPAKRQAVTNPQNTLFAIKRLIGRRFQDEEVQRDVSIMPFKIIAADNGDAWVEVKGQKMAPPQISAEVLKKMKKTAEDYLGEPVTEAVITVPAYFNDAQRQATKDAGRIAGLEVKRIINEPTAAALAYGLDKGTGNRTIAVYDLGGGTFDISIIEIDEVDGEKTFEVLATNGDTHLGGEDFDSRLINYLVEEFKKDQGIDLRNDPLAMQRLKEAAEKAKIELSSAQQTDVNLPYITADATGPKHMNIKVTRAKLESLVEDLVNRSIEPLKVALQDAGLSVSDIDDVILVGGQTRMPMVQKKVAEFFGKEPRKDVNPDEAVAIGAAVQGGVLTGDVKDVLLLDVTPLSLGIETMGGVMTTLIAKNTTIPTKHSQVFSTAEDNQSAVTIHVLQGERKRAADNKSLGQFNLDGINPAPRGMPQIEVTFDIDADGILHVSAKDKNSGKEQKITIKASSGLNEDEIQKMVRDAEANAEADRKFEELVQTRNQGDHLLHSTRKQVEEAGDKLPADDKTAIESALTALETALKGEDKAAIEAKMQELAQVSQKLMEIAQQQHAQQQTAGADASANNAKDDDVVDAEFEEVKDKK

On to “DnaJ (from UniProt P08622 1-376) (natural protein)”, for which the yield of luminescence refolding of FLuc in the presence of KJE without ATP in assay [1] worked out at 40%.

Turning to “DnaK (from UniProt P0A6Y8 1-638) (natural protein)”, the stoichiometry N (DnaK per FLuc) in assay [2] stood at 12.
